The record followed here is paper PMC9460772 (2022).

For the assay, the target named is PPIA (Homo sapiens, UniProt P62937). As to the kind of experiment: NMR.

In general, Kd refers to the free concentration of one partner at which half of the binding sites on the other are occupied at equilibrium, for simple one-to-one binding. A higher Kd goes with weaker binding.

B1: PR20 proline-arginine dipeptide repeat (peptide)
chain: PRPRPRPRPRPRPRPRPRPRPRPRPRPRPRPRPRPRPRPR
B1 returned a Kd of 23 µM.
